# Data as given in paper PMC12732646, “Peroxisome Proliferator-Activated Receptor α/δ/γ Activation Profile by Endogenous Long-Chain Fatty Acids” (International Journal of Molecular Sciences, 2025).
# Ends that are not written are not given here.
# How the values were obtained:
# Conditions in all cases: both partners purified
# [1] = target: T1, Human PPARα-LBD (amino acids 200–468) (human, UniProt Q07869 200-468); assay: FRET or BRET; same cell-free TR-FRET coactivator recruitment; with approved drug (pemafibrate for PPARα, seladelpar for PPARδ, pioglitazone for PPARγ), concentration series; response as percent of the maximal response with 1 µM GW full agonist
# T1 construct: source: delipidized with ethanol
# T1 sequence (looked up): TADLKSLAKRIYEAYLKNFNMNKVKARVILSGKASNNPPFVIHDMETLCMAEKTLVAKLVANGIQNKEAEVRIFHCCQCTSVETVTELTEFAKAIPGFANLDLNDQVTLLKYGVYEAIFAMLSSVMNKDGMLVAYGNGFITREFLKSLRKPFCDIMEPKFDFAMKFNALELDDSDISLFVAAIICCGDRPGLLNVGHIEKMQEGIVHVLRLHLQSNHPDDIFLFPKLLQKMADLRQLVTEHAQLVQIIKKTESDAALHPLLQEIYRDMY
# [2] = target: T2, Human PPARδ-LBD (amino acids 170–441) (human, UniProt Q03181 170-441); assay: as above
# T2 sequence (looked up): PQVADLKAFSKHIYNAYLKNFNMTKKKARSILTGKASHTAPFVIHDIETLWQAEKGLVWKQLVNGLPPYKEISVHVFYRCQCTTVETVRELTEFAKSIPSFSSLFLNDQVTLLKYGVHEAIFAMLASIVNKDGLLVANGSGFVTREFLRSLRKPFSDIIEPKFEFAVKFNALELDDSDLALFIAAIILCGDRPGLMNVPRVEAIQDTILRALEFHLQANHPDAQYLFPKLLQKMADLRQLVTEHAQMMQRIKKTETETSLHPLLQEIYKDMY
# [3] = target: T3, Human PPARγ-LBD (isoform 1; amino acids 203–477) (human, UniProt P37231-2 203-477); assay: FRET or BRET; cell-free TR-FRET coactivator recruitment; 6×His-LBD (9.5 µL of 400 nM) with Eu-W1024 anti-6×His antibody, biotin-labeled peptide (5 µL of 1 µM) with ULight-streptavidin; Buffer A (20 mM HEPES-NaOH pH 7.4, 150 mM NaCl, 1 mM EDTA, 0.005% Tween 20, 0.2% FA-free BSA); room temperature, 2 h; with synthetic full agonist (GW7647 for PPARα, GW501516 for PPARδ, GW1929 for PPARγ), concentration series; 665/620 …
# T3 construct: numbers count on: isoform 1
# T3 sequence (looked up): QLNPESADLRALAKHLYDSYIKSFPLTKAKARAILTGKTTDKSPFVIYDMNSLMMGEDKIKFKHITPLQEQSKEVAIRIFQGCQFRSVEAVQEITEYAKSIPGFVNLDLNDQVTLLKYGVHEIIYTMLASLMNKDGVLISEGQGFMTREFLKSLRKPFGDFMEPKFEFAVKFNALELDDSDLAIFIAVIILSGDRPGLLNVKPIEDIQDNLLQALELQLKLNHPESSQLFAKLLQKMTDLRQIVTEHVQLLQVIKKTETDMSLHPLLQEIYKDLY
# [4] = target: T3, Human PPARγ-LBD (isoform 1; amino acids …); assay: FRET or BRET; same cell-free TR-FRET coactivator recruitment; with approved drug (pemafibrate for PPARα, seladelpar for PPARδ, pioglitazone for PPARγ), concentration series; response as percent of the maximal response with 1 µM GW full agonist
Binder,binding result [1],binding result [2],binding result [3],binding result [4]
"PVSSMAGNTKNHPMLMNLLKDNPAQ (also: biotin-labeled, position not given here, Thyroid hormone receptor-associated protein 220, amino acids 631-655, holds an LXXLL motif (LMNLL); also called thyroid hormone receptor-associated protein 220 peptide; source: synthetic peptide (GenScript)) [TRAP220 coactivator peptide, AAs 631–655]",binds,binds,binds,
"EAEEPSLLKKLLLAPANTQ (also: biotin-labeled, position not given here, source: synthetic peptide (GenScript)) [PGC1α coactivator peptide, AAs 137–155]",,binds,,
"SGNLVPDAASKHKQLSELLRGGSGS (also: biotin-labeled, position not given here, source: synthetic peptide (GenScript)) [CBP coactivator peptide, AAs 56–80]",binds,binds,,binds
"CPSSHSSLTERHKILHRLLQEGSPS (also: biotin-labeled, position not given here, source: synthetic peptide (GenScript)) [SRC1 coactivator peptide, AAs 676–700]",binds,binds,,
